Results on 3 substances are retold here after PMC11116813.

Test [1] concerns the target full-length human HP1α WT (hHP1α), recombinant (human) (UniProt P45973). In words: ITC; iTC200, full-length HP1α dimer in the cell (60 μM for hINCENP, 80 μM for hSgo1), 600 μM hINCENP or 800 μM hSgo1 fragment in the syringe, 25°C, 20 mM NaPO4 pH 7.0, 150 mM NaCl, 1 mM DTT (Fig. 6A, Fig. S5A); one-site model.
Test [2] concerns the target Chp2 (Schizosaccharomyces pombe) (UniProt O42934). The conditions noted are these: cited from earlier work.

Sequence of full-length human HP1α WT (hHP1α), recombinant (human) (P45973 whole entry, the tested form may be a part): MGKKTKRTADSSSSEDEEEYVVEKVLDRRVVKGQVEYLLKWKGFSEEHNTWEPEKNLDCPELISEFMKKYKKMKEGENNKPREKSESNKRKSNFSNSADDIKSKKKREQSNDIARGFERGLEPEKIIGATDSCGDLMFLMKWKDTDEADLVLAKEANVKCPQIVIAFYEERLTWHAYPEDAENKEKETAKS
Sequence of Chp2 (Schizosaccharomyces pombe) (O42934 whole entry): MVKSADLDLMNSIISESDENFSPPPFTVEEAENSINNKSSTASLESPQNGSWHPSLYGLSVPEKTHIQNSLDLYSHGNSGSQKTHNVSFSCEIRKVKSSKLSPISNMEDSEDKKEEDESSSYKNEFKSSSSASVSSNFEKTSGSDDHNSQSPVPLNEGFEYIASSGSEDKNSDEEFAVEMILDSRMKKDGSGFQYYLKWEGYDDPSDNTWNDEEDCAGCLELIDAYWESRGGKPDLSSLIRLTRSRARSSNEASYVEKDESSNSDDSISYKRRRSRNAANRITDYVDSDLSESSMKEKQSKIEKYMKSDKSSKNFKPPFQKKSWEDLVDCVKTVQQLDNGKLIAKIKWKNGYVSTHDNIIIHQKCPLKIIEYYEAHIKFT
Sequence of Mit1 (Q9P793 whole entry): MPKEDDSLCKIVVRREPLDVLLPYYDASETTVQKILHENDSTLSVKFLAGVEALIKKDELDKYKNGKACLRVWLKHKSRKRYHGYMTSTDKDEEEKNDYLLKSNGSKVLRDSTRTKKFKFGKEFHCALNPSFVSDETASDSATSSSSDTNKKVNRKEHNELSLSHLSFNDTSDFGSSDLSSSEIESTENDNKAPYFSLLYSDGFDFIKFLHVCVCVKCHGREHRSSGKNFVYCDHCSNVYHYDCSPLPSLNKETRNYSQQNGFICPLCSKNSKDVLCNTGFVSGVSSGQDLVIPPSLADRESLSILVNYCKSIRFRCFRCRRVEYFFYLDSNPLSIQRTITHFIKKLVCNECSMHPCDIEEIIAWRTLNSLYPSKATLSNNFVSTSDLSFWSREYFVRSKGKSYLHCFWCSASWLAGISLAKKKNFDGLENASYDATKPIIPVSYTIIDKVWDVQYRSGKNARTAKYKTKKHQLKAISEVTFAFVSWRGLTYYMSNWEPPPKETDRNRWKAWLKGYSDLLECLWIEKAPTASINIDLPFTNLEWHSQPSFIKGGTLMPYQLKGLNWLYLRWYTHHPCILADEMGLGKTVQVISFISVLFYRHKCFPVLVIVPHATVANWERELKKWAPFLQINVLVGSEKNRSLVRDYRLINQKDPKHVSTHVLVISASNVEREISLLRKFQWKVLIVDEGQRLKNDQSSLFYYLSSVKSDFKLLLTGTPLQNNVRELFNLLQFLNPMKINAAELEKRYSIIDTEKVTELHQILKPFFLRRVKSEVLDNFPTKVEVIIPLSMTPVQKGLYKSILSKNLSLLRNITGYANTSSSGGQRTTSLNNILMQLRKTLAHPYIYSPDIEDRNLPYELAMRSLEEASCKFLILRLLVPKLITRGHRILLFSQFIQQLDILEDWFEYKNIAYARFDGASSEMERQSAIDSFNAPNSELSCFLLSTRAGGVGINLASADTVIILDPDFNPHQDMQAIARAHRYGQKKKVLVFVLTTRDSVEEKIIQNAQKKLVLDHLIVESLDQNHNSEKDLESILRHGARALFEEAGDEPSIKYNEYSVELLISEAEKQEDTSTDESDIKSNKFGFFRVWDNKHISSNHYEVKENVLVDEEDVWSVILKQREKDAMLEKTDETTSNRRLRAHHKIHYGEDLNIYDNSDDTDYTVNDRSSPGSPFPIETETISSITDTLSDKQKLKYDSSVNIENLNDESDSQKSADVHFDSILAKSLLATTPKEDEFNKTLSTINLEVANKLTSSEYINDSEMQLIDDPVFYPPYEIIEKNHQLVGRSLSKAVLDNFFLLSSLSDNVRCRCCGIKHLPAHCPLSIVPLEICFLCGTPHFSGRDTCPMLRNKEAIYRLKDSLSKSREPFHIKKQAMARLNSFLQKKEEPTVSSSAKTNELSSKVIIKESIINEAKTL

As to “human INCENP fragment (121-210) WT used in Fig. 6A (from UniProt Q9NQS7 121-210) (domain or fragment)”, in test [1], the Kd amounted to 60 nM.

Mit1 (from UniProt Q9P793): in test [2], the dissociation constant (Kd) was 2.6 nM.

With “human INCENP fragment (121-210) E180A (from UniProt Q9NQS7 121-210) (domain or fragment)”, the Kd in test [1] turned out to be 810 nM.

Broadly, the Kd is a measure of binding affinity in units of concentration.
